In article PMC9242592, “Activation of the human chemokine receptor CX3CR1 regulated by cholesterol” (Science Advances, 2022):
Blank lines part the entries; values can stand above or below the binder they belong to.

B3: human dominant negative Gαi1 (DNGαi1) with S47C, G202T, G203A, E245A and A326S (natural protein)
chain: MGCTLSAEDKAAVERSKMIDRNLREDGEKAAREVKLLLLGAGESGKCTIVKQMKIIHEAGYSEEECKQYKAVVYSNTIQSIIAIIRAMGRLKIDFGDSARADDARQLFVLAGAAEEGFMTAELAGVIKRLWKDSGVQACFNRSREYQLNDSAAYYLNDLDRIAQPNYIPTQQDVLRTRVKTTGIVETHFTFKDLHFKMFDVTAQRSERKKWIHCFEGVTAIIFCVALSDYDLVLAEDEEMNRMHASMKLFDSICNNKWFTDTSIILFLNKKDLFEEKIKKSPLTICYPEYAGSNTYEEAAAYIQCQFEDLNKRKDTKEIYTHFTCSTDTKNVQFVFDAVTDVIIKNNLKDCGLF
notes: source: HighFive insect cells, coexpressed with the receptor and Gβ1/Gγ2, purified as complex (Strep-Tactin, SEC)

Key:
Settings in all cases: both partners purified
[1] = biological target: T1, CX3CR1 (residues 1 to 315; I120L, L176C, C221S, M250V) as it stands in construct-2 (human, UniProt P49238 1-315, I120^3.43L | L176^ECL2C | C221^ICL3S | M250^6.54V); assay: cryo-EM structure; CX3CL1-bound CX3CR1-Gi1 complex; construct-2 (CX3CL1 fused to CX3CR1, disulfide G35C-L176C), DNGαi1 and Gβ1/Gγ2 coexpressed in HighFive cells and purified together (Strep-Tactin, SEC) in LMNG/CHS; 25 mM Hepes pH 7.5, 150 mM NaCl; apyrase treated
T1 construct: CX3CR1, human, residues 1 to 315; Not a free protein: the receptor part of the fusion m2; Written alone for the pair CX3CL1 with CX3CR1; source: HighFive insect cells, part of the fusion construct-2, purified as complex (Strep-Tactin, SEC); not shown: Twin-Strep-tag, C-terminal, kept
T1 sequence (looked up): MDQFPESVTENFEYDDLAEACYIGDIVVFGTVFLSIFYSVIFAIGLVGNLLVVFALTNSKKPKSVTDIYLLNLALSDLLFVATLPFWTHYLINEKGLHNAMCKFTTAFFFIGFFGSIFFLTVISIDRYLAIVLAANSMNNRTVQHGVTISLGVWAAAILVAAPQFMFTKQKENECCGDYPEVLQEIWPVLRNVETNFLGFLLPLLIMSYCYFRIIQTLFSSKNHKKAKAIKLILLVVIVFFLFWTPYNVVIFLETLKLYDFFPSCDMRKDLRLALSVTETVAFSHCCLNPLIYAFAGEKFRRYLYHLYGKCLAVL

[2] = biological target: B3; assay: cryo-EM structure; ligand-free CX3CR1-Gi1 complex; construct-1, DNGαi1 and Gβ1/Gγ2 coexpressed in HighFive cells and purified together (Strep-Tactin, SEC) in LMNG/GDN/CHS; 25 mM Hepes pH 7.5, 150 mM NaCl; apyrase treated
[3] = biological target: T2, Modified CX3CL1-CX3CR1 fusion followed by the Twin-Strep-Tag at the C terminus ( | human, UniProt P78423 25-100; P49238 1-315, G35C | I120^3.43L | L176^ECL2C | C221^ICL3S | M250^6.54V, pyroglutamate at residue 1 of CX3CL1 (pE1); disulfide between G35C of CX3CL1 and L176C of CX3CR1); assay: cryo-EM structure; CX3CL1-bound CX3CR1-Gi1 complex; construct-2 (CX3CL1 fused to CX3CR1, disulfide G35C-L176C), DNGαi1 and Gβ1/Gγ2 coexpressed in HighFive cells and purified together (Strep-Tactin, SEC) in LMNG/CHS; 25 mM Hepes pH 7.5, 150 mM NaCl; apyrase treated
T2 construct: CX3CL1 chemokine domain, residues 1 to 76; numbers count on: the mature protein (pE1 is residue 1); 28-residue linker (14 × Gly-Ser); CX3CR1, human, residues 1 to 315, as in construct-1 with the additional L176C; A signal peptide before CX3CL1 is not described; also called construct-2; fused form of CX3CR1-CX3CL1 with a cross-linking disulfide bond; source: HighFive insect cells, coexpressed with …
T2 sequence: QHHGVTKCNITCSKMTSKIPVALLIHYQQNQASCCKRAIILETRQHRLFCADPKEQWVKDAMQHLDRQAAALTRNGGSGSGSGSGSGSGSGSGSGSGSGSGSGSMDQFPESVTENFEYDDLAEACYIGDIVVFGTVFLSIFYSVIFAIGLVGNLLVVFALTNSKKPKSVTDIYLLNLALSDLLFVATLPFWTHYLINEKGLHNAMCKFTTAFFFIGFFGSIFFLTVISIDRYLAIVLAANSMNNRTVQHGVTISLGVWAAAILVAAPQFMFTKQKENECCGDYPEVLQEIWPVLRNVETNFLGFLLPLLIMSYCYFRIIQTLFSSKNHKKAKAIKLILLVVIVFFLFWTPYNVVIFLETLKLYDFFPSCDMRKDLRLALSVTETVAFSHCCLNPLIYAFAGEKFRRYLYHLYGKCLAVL

binding result [1]: binds
B1: CX3CL1 (residues 1 to 76, G35C) as it stands in construct-2 (ligand, UniProt P78423 25-100, looked up)
chain: QHHGVTKCNITCSKMTSKIPVALLIHYQQNQASCCKRAIILETRQHRLFCADPKEQWVKDAMQHLDRQAAALTRNG
modifications: pyroglutamate at 1 (pE1)
notes: CX3CL1 chemokine domain, residues 1 to 76; numbers count on: the mature protein (pE1 is residue 1); Written alone for the pair CX3CL1 with CX3CR1; also called chemokine CX3CL1; source: HighFive insect cells, part of the fusion construct-2, purified as complex (Strep-Tactin, SEC)

binding result [2]: binds
B2: Modified human CX3CR1 (residues 1 to 315) with three mutations (I120L, C221S, M250V) and a C-terminal Twin-Strep-tag (receptor, UniProt P49238 1-315, looked up)
chain: MDQFPESVTENFEYDDLAEACYIGDIVVFGTVFLSIFYSVIFAIGLVGNLLVVFALTNSKKPKSVTDIYLLNLALSDLLFVATLPFWTHYLINEKGLHNAMCKFTTAFFFIGFFGSIFFLTVISIDRYLAIVLAANSMNNRTVQHGVTISLGVWAAAILVAAPQFMFTKQKENECLGDYPEVLQEIWPVLRNVETNFLGFLLPLLIMSYCYFRIIQTLFSSKNHKKAKAIKLILLVVIVFFLFWTPYNVVIFLETLKLYDFFPSCDMRKDLRLALSVTETVAFSHCCLNPLIYAFAGEKFRRYLYHLYGKCLAVL
notes: CX3CR1, human, residues 1 to 315 (40 residues C316 to L355 truncated from the C terminus); also called construct-1; engineered construct; source: HighFive insect cells, coexpressed with DNGαi1 and Gβ1/Gγ2, purified as complex (Strep-Tactin, SEC); not shown: Twin-Strep-tag, C-terminal, kept

Binder: B3
binding result [3]: binds
